Laboratory results as given in the Human Domainome abundance scans (Beltran et al. 2025).

B1: Cytoplasmic polyadenylation element-binding protein 2, residues 513 to 575; numbered along this chain, Q7Z5Q1 (parent)
chain: KRVEVKPYVLDDQMCDECQGARCGGKFAPFFCANVTCLQYYCEFCWANIHSRAGREFHKPLVK

Variants of: B1
Experiment: abundance fitness (aPCA) (normalised: wild type 0, dead -1); higher = more abundant; growth selection in yeast, the domain comes from the species named
Settings: Homo sapiens

Abundance fitness: each site, then its substitutions
C15: Y -0.519; Q -0.55; V -0.587; K -0.649; D -0.691; F -0.588; R -0.606; H -0.418; L -0.531; G -0.531; P -0.454; A -0.394; S -0.377
C23: E -0.153; W -0.424; A -0.154; Q -0.24; S -0.074; T -0.095; Y -0.38; V -0.328; K -0.194; R -0.185; F -0.409; L -0.285; P -0.229; D 0.028; M -0.188; N -0.121; G -0.056
P29: R -0.052; N -0.01; S 0.009; V -0.199; K -0.065; E -0.108; G -0.03; Q 0.074; A 0.009; C -0.147; F -0.31; I -0.282; W -0.293; D -0.096; Y -0.122
R22: E -0.222; M -0.026; L -0.128; W -0.332; Q 0.1; C -0.419; K 0.006; F -0.363; A -0.126; D -0.289; P -0.504; T -0.283; S -0.04; G -0.303; I -0.284; H 0.077; V -0.343; N -0.032
K26: C -0.261; G -0.082; M -0.1; V -0.06; T -0.073; R -0.027; Y -0.404; D -0.148; L -0.138; E -0.091; Q -0.132; I -0.236; A -0.016; H -0.126; S -0.079; W -0.509
F27: L -0.015; H -0.08; K 0.084; N -0.099; C 0.054; M -0.013; S -0.022; Q -0.045; V -0.035; R -0.014; A 0.068; E -0.09; T -0.053; W -0.178; G -0.061; D -0.125; Y -0.202; P -0.01; I -0.218
G20: C -0.503; E -0.462; F -0.987; V -0.418; H -0.509; D -0.093; S -0.363; Y -0.598; L -0.944; I -0.841; A -0.501; Q -0.582; K -0.403; W -0.686; P -0.688; M -0.756; N -0.499; T -0.571; R -0.522
E17: D -0.136; R -0.059; Q 0.09; V -0.061; H 0.018; G -0.081; P -0.366; F -0.458; L -0.117; C -0.006; S -0.051; T -0.22; M -0.188; W -0.25; N -0.128
F30: Q 0.016; L -0.036; T -0.188; V -0.219; P -0.621; G -0.582; N -0.081; C -0.322; E -0.415; K 0.037; A -0.261; R -0.09; D -0.318; Y 0.006; I -0.161; S -0.195
A28: K -0.094; Y -0.985; V -0.287; W -0.381; E -0.289; R -0.233; H -0.495; C -0.674; Q -0.366; F -0.498; P -0.208; M -0.445; G -0.314; D -0.484; S -0.321; L -0.497; T -0.364; I -0.337; N -0.459
